Legend:
Assay in all cases: SEC-MALS; SEC followed by multiangle light scattering of the SEC-purified Δ123 species
[1] = target: Δ123 E2 dimer (G1a strain H77c) (hepatitis C virus genotype 1a, strain H77c) (UniProt P27958)
[2] = target: Δ123 E2 high-molecular-weight form 2 (HMW2, G1a strain H77c) (hepatitis C virus genotype 1a, strain H77c) (UniProt P27958)
[3] = target: Δ123 E2 high-molecular-weight form 1 (HMW1, G1a strain H77c) (hepatitis C virus genotype 1a, strain H77c) (UniProt P27958)

## Δ123 E2 dimer (G1a strain H77c) (from UniProt P27958 384-661) (domain or fragment)
[1]
  stoichiometry N: 2.1

## Δ123 E2 high-molecular-weight form 2 (HMW2, G1a strain H77c) (from UniProt P27958 384-661) (domain or fragment)
[2]
  stoichiometry N: 5.1

## Δ123 E2 high-molecular-weight form 1 (HMW1, G1a strain H77c) (from UniProt P27958 384-661) (domain or fragment)
[3]
  stoichiometry N: 51.6

From paper PMC5408392
